For the assay, the target named is T1, MUC1 on WISH cells (human, UniProt P15941 24-1255).
T1 construct: whole, on cells; WISH cells also carry low levels of EGFR; also called MUC1-expressing cells (WISH)
The assay is described as follows: cell binding on WISH cells.

Usually Kd stands for a measure of binding affinity in units of concentration. Read a low Kd as tighter binding.

B1: 1993-H02 with an HT186-D11 light chain (anti-MUC1 antibody H02) (antibody, V domains shown)
VH: QMQLVQSEAELKKPGASVKVSCKASGYSFTSHFMHWVRQAPGQGLEWMGWIDPVTGGTKYAQNFQGWVTMTRDTSIRTAYLELSRLRSDDTAMYYCAREARADRGQFDKWGQGTLVTVAS
VL: QSVLTQPPSVSVAPGKTARITCGGNNIGSKSVHWYQQKPGQAPALVIYYGSNRPSGIPERFSGSNSGNTATLTISRVEAGDEADYYCQVWDSSSDWVFGGGTKLTVL
notes: One molecule is used here for both experiments
As for B1, binding was characterised by a dissociation constant (Kd) of 23.9 nM.

The values above are taken from patent publication US20230310629A1 (Merck KGaA, published 2023).
